The results in this text go back to US20250298041A1 (published 2025).

The term EC50 denotes the concentration that produces a half-maximal response. A higher EC50 goes with lower potency in that assay.

Assay [1] addresses T1, Plasma-derived VWF (pdVWF, Alphanate) (human, UniProt P04275 764-2813).
T1 construct: Commercial multimeric VWF concentrate; also called plasma-purified VWF; full-length VWF
Kind of assay: ELISA, plate coated with 100 nM nanobody, pdVWF titrated; apparent affinity, hyperbolic fit; apparent Kd of direct binding to pdVWF. A general note: In an ELISA, binding on a coated surface is turned into a signal by an enzyme label.

Assay [2] deals with T1, Plasma-derived VWF (pdVWF, Alphanate). Kind of assay: ELISA: binding of pdVWF (0.1 µg/ml) to immobilised LBD-WT induced by a titration of the nanobody; EC50 of nanobody-induced binding of pdVWF to immobilized LBD.
Assay [3] concerns the target T2, recombinant AIM-A1 protein (human VWF residues 1238-1493) (human, multiple O-linked sialylated core 1 glycans (produced from transfected HEK293F cells)).
T2 construct: Any tags are as in that entry; also called glycosylated AIM-A1; human VWF AIM-A1 protein
Kind of assay: method not given; nanobody from E. coli on AIM-A1.

Assay [4] addresses plasma VWF (normal pooled human plasma) (human, UniProt P04275 764-2813). Kind of assay: cell-based or functional assay.
Assay [5] addresses T2, recombinant AIM-A1 protein (human VWF …). Kind of assay: biolayer interferometry. Background: In BLI a coated tip is dipped into the sample, and binding shifts an interference pattern.
The target is the same in assay [6]. Kind of assay: apparent affinity, method not named; glycosylated AIM-A1 from HEK293F cells; glycosylated AIM-A1 from HEK293F cells; apparent affinity.
The target of assay [7] is T1, Plasma-derived VWF (pdVWF, Alphanate). Kind of assay: method not stated; monomeric recombinant VHH81; plasma-derived VWF.
In a further assay the target is T3, purified VWF (UniProt P04275 764-2813, limits assumed).
T3 construct: It may be a recombinant fragment
Description: method not stated; monomeric recombinant VHH81; purified VWF.

B1: Cd1C4 (VHH)
VHH: QVQLVESGGGLVQTGGSLTLSCAASGRAFSQYSVGWFRQAPGKERTFVAAINWSGTKAYYAGSVKGRSTISRDRAKTTVFLQMNSLKPEDTAVYYCATHRGLYYEGTNYSQKDEYDYWGQGTQVTVSS
notes: Llama nanobody produced in E. coli with a C-terminal His tag; also called 6C4
For B1, the Kd in assay [1] worked out at 5.4 nM; in assay [3], 120 nM. In addition, the midpoint of the response in assay [2], the EC50, lay at 163 nM. In addition, the “EC50 of platelet aggregation in stirred human platelet rich plasma” value (“EC50 of platelet aggregation” below) in assay [4] was roughly 167 nM.

B2: Cd1C11 (VHH)
VHH: QVQLVESGGGLVQTGGSLRLSCAASGRTVSHYSVGWFRQAPGKERVFVGAINWSGDKAYYVGSVKGRSTIRRDNAKNTVYLQMNSLKPEDTAVYYCATRRGLYYEGTDYSRKDEYDYWGQGTQVTVSS
notes: Llama nanobody produced in E. coli with a C-terminal His tag; also called 6C11
Take B2: the results for the Kd in assay [1], in assay [5] and in assay [3] were 3.68 nM, 29 nM and 13.5 nM, respectively. For the same molecule, in assay [2], the half-maximal effective concentration (EC50) was 215 nM. In assay [4], the “EC50 of extent of platelet aggregation as a function of nanobody concentration” value is roughly 100 nM. The “EC50 of platelet aggregation” value in assay [4] is roughly 100 nM.

B3: Cd1D12 (VHH)
VHH: QVQLVESGGGLVQPGGSLRLSCAASGFTLDDYAIGWFRQVPGKERTFVGAINWSGTKAYYAGSVKGRSTVRRDNAKNTVYLQMNSLKPEDTAVYYCATHRGLHYGGINYSQKDEYDYWGQGTQVTVSS
notes: Llama nanobody produced in E. coli with a C-terminal His tag; also called 6D12
As for B3, the Kd was 1.12 nM in assay [1], 76 nM in assay [5], 31 nM in assay [3] and roughly 10 nM in assay [6]. This molecule also came in with an EC50 in assay [2] of 42 nM. Besides, the “EC50 of extent of platelet aggregation as a function of nanobody concentration” value in assay [4] is roughly 100 nM. In assay [4], the “EC50 of platelet aggregation” value is roughly 57 nM.

B4: VHH81 (VHH)
VHH: EVQLVESGGGLVQPGGSLRLSCAASGRITSYNPMGWFRQAPGKGRELVAAISRTGGSTYYPDSVEGRFTISRDNAKRMVYLQMNSLRAEDTAVYYCAAAGVRAEDGRVRTLPSEYTFWGQGTQVTVSS
notes: Monomeric recombinant VHH81 produced in bacteria; The tags are not included here; also called PMP12A2h1; mono ISVD of caplacizumab
Take B4: the Kd (in assay [7]; with purified VWF) was roughly 20 nM each time.
